# Experimental data taken from patent publication US11872307B2, “Liquisoft capsules” (PATHEON SOFTGELS INC., priority 2015, dated 2024).
# Assay: Appearance / precipitation of matrix fill
# Type: physicochemical
# Details: dextromethorphan hydrobromide 30 mg, menthol 5 mg
# Method: Formulas 14, 15, and 16 were the initial matrix prototypes for dextromethorphan hydrobromide (30 mg) and menthol (5 mg). Three different taste-masking agents were tested: mannitol, thaumatin (Talin®) and glycyrrhizic acid salts (MagnaSweet®).
# Thaumatin and glycyrrhizic acid salts were employed with the lower active pharmaceutical ingredient dose, individually and as a combination. […] Thus, the glycyrrhizic acid salts were not further assessed for chemical stability. Thus, Formula 19 was formulated using thaumatin and used for excipient compatibility studies.
substance,measurement,value
Thaumatin,appearance of matrix fill,hazy appearance
